The supplement of paper PMC9170038

Tested on: MS2 coat protein
Assay: apparent KD of MS2 coat protein; designed switch direction (-1 OFF switch, 1 ON switch): -1; higher = weaker reporter binding
Outline: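 Designed RNA switches were transcribed on Illumina chips by stalled E. coli RNA polymerase and titrated with SNAP-549-labelled MS2 coat protein from 0.7 or 1.5 nM, doubling to 3 µM. Step length ran from 0.8–1.5 h at the lowest concentration to 10–20 min at the highest. The apparent KD is the median over clusters for each design, from curve-fitted normalised cluster fluorescence.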

[1] = input ligand: microRNA oligo, concentration not stated
[2] = Eterna round: R95, input ligand: microRNA oligo, concentration not stated
[3] = Eterna round: R95, input ligand: FMN 200 uM
[4] = Eterna round: R95, input ligand: none

| Sequence | apparent KD of MS2 coat protein (input ligand: FMN 200 uM) [nM] | apparent KD of MS2 coat protein (input ligand: none) [nM] | apparent KD of MS2 coat protein [1] [nM] | apparent KD of MS2 coat protein [2] [nM] | apparent KD of MS2 coat protein [3] [nM] | apparent KD of MS2 coat protein [4] [nM] |
| --- | --- | --- | --- | --- | --- | --- |
| GAUCAACAUGAGGAUCACCCAUGUUAGGAUAUGUCCACGUGGCAUAGGACCACGUGUGGCAGAAGGAGCGUUAA [Eternabot (L2) Solution 52] (Eterna round: R97, puzzle: Exclusion 1) | 37.9 | 37.4 | – | – | – | – |
| UAGACCUCGUCAGGAUAUCCAGGUUCUUCGCCCGGAGAAGGGACAUGAGGAUCACCCAUGUAGGAGAGCAUCGCUGUCGAGCAA [Redixeri] (Eterna round: R96, puzzle: Exclusion NG 1) | 19.3 | 18.3 | 11.5 | – | – | – |
| AGCUGUGGCCGAGGAUAUCUAUUAAUCCAAACCGAAAUAUAAUCGGACAUGAGGAUCACCCAUGUAGAGAAGGCGGUCUCAGCA [Eli eng2 - 077] (Eterna round: R96, puzzle: Exclusion NG 2) | – | – | 53.5 | – | – | – |
| UUUCUCGUUGUGAGGAUAUCGUUUUUGUUUUGGAUCGAGAAGGCACAUGAGGAUCACCCAUGUUUGUUGUGGUU [JR_BMOE4_Sub088] (puzzle: Brourd's mod of Exclusion 4) | – | – | – | 93.3 | – | – |
| GAUAGAGCAGGAUAUCGAGAUCCGCACAUGAGGAUCACCCAUGUUCGGUCGAAAGACCGACGAGAAGGGCUCUAUC [Omei Ex5 E8] (Eterna round: R97, puzzle: Exclusion 5) | 639 | 603 | – | – | – | – |
| UGUUGUUGCGCAGGAUAUUGCCAACAGGCAGUAGGAUAUCCGAAAGGAGAAGGACCGCCAACAGGCGAGAAGGGCGGGACAACU [pwkr exNG2 2xF7 2xFMN.12] (Eterna round: R96, puzzle: Exclusion NG 2) | 93.9 | 64.3 | 44.5 | – | – | – |
| UCUAGUUCAGGAUAUGUAGAUUUUAACAUGAGGAUCACCCAUGUAGAUCCUGAAUUAGCUACAGAAGGGAACAUUU [Mod of Brourd 2 - Jieux - Exclusion 5] (Eterna round: R97, puzzle: Exclusion 5) | 18.1 | 13.3 | – | – | – | – |
| CUUUUGUGAGGAUAUCAGUAGUAAUACAAUAGUAUUACUAUUGAGAAGGCACAUGAGGAUCACCCAUGUUCCUC [Ex4 344 Omei mod 6] (puzzle: Exclusion 4) | – | – | – | 38 | – | – |
| AUUCCUCCUGUGAGGAUAUGCGUUACGCACCCGUCGCAGAAGGCACAUGAGGAUCACCCAUGUGAGUUACCAAU [BmEX4 A.11] (Eterna round: R97, puzzle: Brourd's mod of Exclusion 4) | 166 | 18.9 | – | – | – | – |
| UUCACAUGGACAUAAGAUCACAUGAGGAUCACCCAUGUGAAUAACAAGCUUUUUGCUCGUCUUAUGUCCAAUAAUAU [Stov1/14-A3] (Eterna round: R97, puzzle: Sensor, turn-off variant 1) | 13.2 | 13.2 | – | – | – | – |
| GAAUAGCAAGCGAGAUCCCACAUGAGGAUCACCCAUGUGCUCGUCUUAUAAAGUACUGUGACGAGAGUCACGGUACA [Mat - Sensor, turn-off var - Eli Mod - D14] (Eterna round: R97, puzzle: Sensor, turn-off variant 1) | 14.3 | 16.1 | – | – | – | – |
| UUCGUGCAGCUUUGCUGUACGCGUACAUGAGGAUCACCCAUGUAGGAUAUGGUAGGCUUUGCUUACUAGAAGGAUAGAGUGAUC [JL EXNG3 1.29] (Eterna round: R96, puzzle: Exclusion NG 3) | 80.7 | 95.7 | 67.8 | – | – | – |
| AGUCCACAUGAGGAUCACCCAUGUCAGGAUAUACGCAAUACAAAAGAACCCAUCAAAAGUAGAAGGGACAGGGA [Getequ] (puzzle: Exclusion 1) | – | – | – | 10 | 13.5 | 9.06 |
| CCAGGCGUCUUGGCUCGUCUUAUUUGGAGAGGAUUGAUAACAUGAGGAUCACCCAUGUGUGUGGGAGAGUUGCAGUG [JR_SV3TOV2_Sub018] (puzzle: Sensor v3, turn-off variant 2) | – | – | – | 425 | 335 | 374 |
| AAUUCACAUGAGGAUCACCCAUGUCAGGAUAUGGUUUCACGUUUUUCUUUUCUUGAGGCCAGAAGGGACAGCUA (puzzle: Exclusion 1) | – | – | – | 60.1 | – | – |
| AAAUGCAAGCAAAGAUCUUACAUGAGGAUCACCCAUGUGCUCGUCUUAUAAAGUACUAUCACGAAAGUGAUAGUACA [Sensor 3, v1 - 28] (puzzle: Sensor v3, turn-off variant 1) | – | – | – | 90.9 | 25.9 | 18.1 |
| GAAUAACAUGAGGAUCACCCAUGUUAGGAUAUGACGUCGUUUAGUCUUUAAACGAGCGUUAGAAGGAACAGGUG [Eternabot (L1) Solution 11] (Eterna round: R97, puzzle: Exclusion 1) | 70.8 | 56.8 | – | – | – | – |

| Sequence | apparent KD of MS2 coat protein (input ligand: FMN 200 uM) [nM] | apparent KD of MS2 coat protein (input ligand: none) [nM] | apparent KD of MS2 coat protein [1] [nM] | apparent KD of MS2 coat protein [2] [nM] | apparent KD of MS2 coat protein [3] [nM] | apparent KD of MS2 coat protein [4] [nM] |
| --- | --- | --- | --- | --- | --- | --- |
| AACAGUGUAGGAUAUACAGGGCAAACGGCACCCGUCUCCGGACAUGAGGAUCACCCAUGUAGAAGGACACCUAU [EX2 C.16] (Eterna round: R97, puzzle: Exclusion 2) | 246 | 47.4 | – | – | – | – |
| ACGCUACAUGAGGAUCACCCAUGUGAGGAUAUUUGAUCCAGGCAGCAAAGGAUGAUACGGAGAAGGUACAUGGU [Eternabot (L1) Solution 35] (Eterna round: R97, puzzle: Exclusion 1) | 265 | 147 | – | – | – | – |
| UACCUGAGGCAAAGCUUUAGGUAAACAUGAGGAUCACCCAUGUAGGAUAUGGUAGGCAAAGCUUACCAGAAGGACAUGUUAAUU [Mat - Exclusion NG 3 - Mod of JL - D34] (Eterna round: R96, puzzle: Exclusion NG 3) | 341 | 83 | 79.5 | – | – | – |
| AAAAAGAUAGGAUAUACAAUAAAAUAAAAUAAAAUAAAUACACAUGAGGAUCACCCAUGUAGAAGGAUCGAAAA [Exclusion 2 #1] (puzzle: Exclusion 2) | – | – | – | 25 | 26.6 | 31.2 |
| GUUCGACAUGAGGAUCACCCAUGUGAGGAUAUACGAUUAGCUGCUAGGUAGUUAGUAUGUAGAAGGUGCGUGUA [EX1 #71] (Eterna round: R97, puzzle: Exclusion 1) | 36 | 34.3 | – | – | – | – |
| UUUUAACAUGAGGAUCACCCAUGUGAGGAUAUCGAAAUUUAUAUUAAUAUUAUUUAAACGAGAAGGCACAUUUU [JMF 43] (puzzle: Exclusion 1) | – | – | – | 70.4 | – | – |
| AAGAUGCGGAUAGGAUAUGGAGAGAAAGAAAGACCAGAAGGAUUGGUCAUAUAACAUGAGGAUCACCCAUGUAUAUGUUGUGAA [AK ExNG1-3.2] (Eterna round: R96, puzzle: Exclusion NG 1) | – | – | 13 | – | – | – |
| CUGAACCCGGUAGGAUAUAUUGUGGGCGGGCGUGGAACGACAUGAGGAUCACCCAUGUAAUUGAGGUAGAAGGGCCGAGAGAUU [Excl-NG2-LRO15] (Eterna round: R96, puzzle: Exclusion NG 2) | 37.9 | 46.4 | 23 | – | – | – |
| CCCGGGCCUGUGAGGAUAUGUUUGGGUAAACCCGGGCAGAAGGCACAUGAGGAUCACCCAUGUAAGGGUUUGGG [-29.6, -27.5 kcal, A 23%, 5bbis-5bbis] (Eterna round: R97, puzzle: Brourd's mod of Exclusion 4) | 22.6 | 34.5 | – | – | – | – |
| UUAAAUCAUGUAGGAUAUGCGUUGCGAAGCGAUGCAGAAGGACAUGAGGAUCACCCAUGUGCUAGCGUCCGCGUACGGAUGCAA [Mat - Exclusion NG 1 - Mod of JL - D60] (Eterna round: R96, puzzle: Exclusion NG 1) | 172 | 52 | 65.3 | – | – | – |
| GAGAAGGUAGGAUAUACGAAGAAAAAGGGUAGAAGAAGAACACAUGAGGAUCACCCAUGUAGAAGGACCAAGAG [Mat - Exclusion 2 - Mod of my Tesla design - D17] (puzzle: Exclusion 2) | – | – | – | 21.5 | 38 | 22.5 |
| GUUAUCGCAGGAUAUUAAUACUUGUACAUGAGGAUCACCCAUGUUUAUUGGGAUUAAGAAUAAGAAGGGCGAUGAA [JR_Ex5_Sub003] (Eterna round: R97, puzzle: Exclusion 5) | 52.8 | 27.8 | – | – | – | – |
| CGAUGCUCGAAUCCACAUGAGGAUCACCCAUGUCGAGUUAGCGAGGAUAUCGGAGACACAUAGUAUGAGAAGGCGCGAACCUGA [Ex NG3 #23] (Eterna round: R96, puzzle: Exclusion NG 3) | 15.5 | 12.1 | 10.5 | – | – | – |
| GUCCGACAUGAGGAUCACCCAUGUGAGGAUAUACGAUUAGCUGCUAGGUAGUUAGUAUGUAGAAGGUGCAUGAA [EX1 #74] (Eterna round: R97, puzzle: Exclusion 1) | 30.1 | 17.5 | – | – | – | – |
| AAAAAGUCAGGAUAUGUAGCAAAAGGUGAUCAAAAAAAGCUACAGAAGGGACAUGAGGAUCACCCAUGUAAAAA [Ex4: 937] (Eterna round: R96, puzzle: Exclusion 4) | 284 | 183 | 162 | – | – | – |
| CGAGCUUUUUGCUCGUCUUACAUGAGGAUCACCCAUGUCAUACAGAUAGAUAUACGAAAAGUAUAUCUAUCUGUAUG [Mod of sellena's -59.4, -80.7 kcal, A 10%] (Eterna round: R97, puzzle: Sensor, turn-off variant 1) | 23.3 | 27.5 | – | – | – | – |
| GAAAAGGUAGGAUAUACGAAAAAAAAGGGUAGUAAAAAAACACAUGAGGAUCACCCAUGUAGAAGGACCAAAAG [salish99_ex2_r3_079] (puzzle: Exclusion 2) | – | – | – | 20.9 | 35.7 | 18.6 |
